The numbers were not newly measured in article PMC13351906, which cites them from elsewhere.

For the series, the target named is IL-6 receptor (Homo sapiens) (UniProt P08887). The series can be described thus: 125I-rhIL-6 radioligand binding.
Sequence of UniProt P08887 (P08887 20-365): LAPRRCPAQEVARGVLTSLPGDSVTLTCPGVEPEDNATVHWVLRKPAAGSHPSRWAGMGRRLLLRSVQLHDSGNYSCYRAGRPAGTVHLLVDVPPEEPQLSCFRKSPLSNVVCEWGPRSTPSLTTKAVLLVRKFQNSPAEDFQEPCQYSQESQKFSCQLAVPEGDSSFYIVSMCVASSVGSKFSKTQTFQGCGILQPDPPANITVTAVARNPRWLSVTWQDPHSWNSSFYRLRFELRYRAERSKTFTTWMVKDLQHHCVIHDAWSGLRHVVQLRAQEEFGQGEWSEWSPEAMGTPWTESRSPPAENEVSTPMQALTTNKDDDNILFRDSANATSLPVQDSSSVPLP

Sequence of IL-6 (P05231 30-212): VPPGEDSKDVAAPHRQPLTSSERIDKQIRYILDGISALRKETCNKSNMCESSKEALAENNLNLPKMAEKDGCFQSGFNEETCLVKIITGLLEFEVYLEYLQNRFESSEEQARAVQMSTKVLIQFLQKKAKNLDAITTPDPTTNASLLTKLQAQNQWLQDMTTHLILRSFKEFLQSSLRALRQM

For the substance IL-6 (from UniProt P05231), the Kd is 0.44 nM.

As usually defined, the Kd is the free concentration of one partner at which half of the binding sites on the other are occupied at equilibrium, for simple one-to-one binding.
